From PMC3192311
Where “and” joins values, the source holds several entries; their conditions need not be identical. Equal values may be shown once.

What was measured:
[1] = target: LMP-1 transmembrane helix 1 synthetic peptide (TM1) (Epstein-Barr virus); experiment: AUC
[2] = target: Latent Membrane Protein 1 D150A, full length (Epstein-Barr virus) (UniProt P03230)
[3] = target: Latent Membrane Protein 1 D150A, full length (Epstein-Barr virus) (UniProt P03230); remark: listed apart in the source
[4] = target: LMP-1 TM5 D150A synthetic peptide (Epstein-Barr virus); experiment: AUC

**Q.** With “LMP-1 transmembrane helix 1 synthetic peptide (TM1)” as the substance, how does the stoichiometry N [1] read?
**A.** 2 and 4

**Q.** What does the source list for “Latent Membrane Protein 1 D150A, full length (from UniProt P03230 1-386) (natural protein)”?
**A.** p65 nuclear translocation in HEp2 cells, % of exp + cells with nuc p65 (TR > 1) [2]: 38%; NFκB luciferase reporter assay in HEp2 cells, luciferase against empty vector [3]: 1.2 times

**Q.** Which stoichiometry N [4] does the source give for LMP-1 TM5 D150A synthetic peptide here?
**A.** 2
